How the values were obtained:
Assay in all cases: cell-based or functional assay
PAK2(h) (human) = PAK2(h) (human) (UniProt Q13177)
Met(D1246N)(h) (human) = Met(D1246N)(h) (human) (UniProt P08581)
SAPK2b(h) (human) = SAPK2b(h) (human) (UniProt Q15759)
Tie2(h) (human) = Tie2(h) (human) (UniProt Q02763)
Pyk2(h) (human) = Pyk2(h) (human) (UniProt Q14289)
ROCK-I(h) (human) = ROCK-I(h) (human) (UniProt Q13464)
Mer(h) (human) = Mer(h) (human) (UniProt Q12866)
NEK3(h) (human) = NEK3(h) (human) (UniProt P51956)
PKCη(h) (human) = PKCη(h) (human) (UniProt P24723)
Ab1(M351T)(h) (human) = Ab1(M351T)(h) (human) (UniProt P00519)
EphA3(h) (human) = EphA3(h) (human) (UniProt P29320)
eEF-2K(h) (human) = eEF-2K(h) (human) (UniProt O00418)
CDK2/cyclinA(h) (human) = CDK2/cyclinA(h) (human) (UniProt P24941)
ALK(h) (human) = ALK(h) (human) (UniProt Q9UM73)
SAPK2a(T106M)(h) (human) = SAPK2a(T106M)(h) (human) (UniProt Q16539)
Rse(h) (human) = Rse(h) (human) (UniProt Q06418)
Syk(h) (human) = Syk(h) (human) (UniProt P43405)
FGFR4(h) (human) = FGFR4(h) (human) (UniProt P22455)
Flt3(h) (human) = Flt3(h) (human) (UniProt P36888)
Ab1(Q252H)(h) (human) = Ab1(Q252H)(h) (human) (UniProt P00519)
PDGFRα(D842V)(h) (human) = PDGFRα(D842V)(h) (human) (UniProt P16234)
Ret(V804L)(h) (human) = Ret(V804L)(h) (human) (UniProt P07949)
NLK(h) (human) = NLK(h) (human) (UniProt Q9UBE8)
Aurora-B(h) (human) = Aurora-B(h) (human) (UniProt Q96GD4)
KDR(h) (human) = KDR(h) (human) (UniProt P35968)
HIPK1(h) (human) = HIPK1(h) (human) (UniProt Q86Z02)
IR(h) (human) = IR(h) (human) (UniProt P06213)
ZIPK(h) (human) = ZIPK(h) (human) (UniProt O43293)
PDGFRα(h) (human) = PDGFRα(h) (human) (UniProt P16234)
PDK1(h) (human) = PDK1(h) (human) (UniProt O15530)
FGFR1(h) (human) = FGFR1(h) (human) (UniProt P11362)
TAO1(h) (human) = TAO1(h) (human) (UniProt Q7L7X3)
cKit(D816H)(h) (human) = cKit(D816H)(h) (human) (UniProt P10721)
Fyn(h) (human) = Fyn(h) (human) (UniProt P06241)
PhKγ2(h) (human) = PhKγ2(h) (human) (UniProt P15735)
DYRK2(h) (human) = DYRK2(h) (human) (UniProt Q92630)
Pim-1(h) (human) = Pim-1(h) (human) (UniProt P11309)
LOK(h) (human) = LOK(h) (human) (UniProt O94804)
GSK3α(h) (human) = GSK3α(h) (human) (UniProt P49840)
MLK1(h) (human) = MLK1(h) (human) (UniProt P80192)
Ab1(Y253F)(h) (human) = Ab1(Y253F)(h) (human) (UniProt P00519)
CaMKI(h) (human) = CaMKI(h) (human) (UniProt Q14012)
Met(Y1248D)(h) (human) = Met(Y1248D)(h) (human) (UniProt P08581)
PKG1α(h) (human) = PKG1α(h) (human) (UniProt Q13976)
JNK2α2(h) (human) = JNK2α2(h) (human) (UniProt P45984)
Rsk4(h) (human) = Rsk4(h) (human) (UniProt Q9UK32)
TLK2(h) (human) = TLK2(h) (human) (UniProt Q86UE8)
EGFR(L861Q)(h) (human) = EGFR(L861Q)(h) (human) (UniProt P00533)
PKCε(h) (human) = PKCε(h) (human) (UniProt Q02156)
RIPK2(h) (human) = RIPK2(h) (human) (UniProt O43353)
EphB2(h) (human) = EphB2(h) (human) (UniProt P29323)
[1] = target: IGF-1R(h), activated (human) (UniProt P08069)
Lyn(h) (human) = Lyn(h) (human) (UniProt P07948)
CHK2(h) (human) = CHK2(h) (human) (UniProt O96017)
Rsk3(h) (human) = Rsk3(h) (human) (UniProt Q15349)
DAPK2(h) (human) = DAPK2(h) (human) (UniProt Q9UIK4)

Sequence of PAK2(h) (human) (Q13177 whole entry): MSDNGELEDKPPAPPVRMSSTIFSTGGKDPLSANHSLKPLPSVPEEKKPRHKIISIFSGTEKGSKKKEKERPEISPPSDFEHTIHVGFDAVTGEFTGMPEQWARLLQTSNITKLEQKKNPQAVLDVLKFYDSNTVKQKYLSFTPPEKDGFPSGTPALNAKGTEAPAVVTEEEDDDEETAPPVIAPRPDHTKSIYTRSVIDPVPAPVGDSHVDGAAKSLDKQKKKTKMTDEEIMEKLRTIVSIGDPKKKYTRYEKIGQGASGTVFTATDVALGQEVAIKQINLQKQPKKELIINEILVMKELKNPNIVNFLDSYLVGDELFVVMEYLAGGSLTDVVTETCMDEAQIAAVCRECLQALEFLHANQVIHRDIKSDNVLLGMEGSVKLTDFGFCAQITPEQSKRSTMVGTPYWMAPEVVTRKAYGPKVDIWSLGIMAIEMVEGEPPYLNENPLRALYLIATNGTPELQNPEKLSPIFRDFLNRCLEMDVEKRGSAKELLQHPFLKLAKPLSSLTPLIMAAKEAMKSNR
Sequence of DYRK2(h) (human) (Q92630 whole entry): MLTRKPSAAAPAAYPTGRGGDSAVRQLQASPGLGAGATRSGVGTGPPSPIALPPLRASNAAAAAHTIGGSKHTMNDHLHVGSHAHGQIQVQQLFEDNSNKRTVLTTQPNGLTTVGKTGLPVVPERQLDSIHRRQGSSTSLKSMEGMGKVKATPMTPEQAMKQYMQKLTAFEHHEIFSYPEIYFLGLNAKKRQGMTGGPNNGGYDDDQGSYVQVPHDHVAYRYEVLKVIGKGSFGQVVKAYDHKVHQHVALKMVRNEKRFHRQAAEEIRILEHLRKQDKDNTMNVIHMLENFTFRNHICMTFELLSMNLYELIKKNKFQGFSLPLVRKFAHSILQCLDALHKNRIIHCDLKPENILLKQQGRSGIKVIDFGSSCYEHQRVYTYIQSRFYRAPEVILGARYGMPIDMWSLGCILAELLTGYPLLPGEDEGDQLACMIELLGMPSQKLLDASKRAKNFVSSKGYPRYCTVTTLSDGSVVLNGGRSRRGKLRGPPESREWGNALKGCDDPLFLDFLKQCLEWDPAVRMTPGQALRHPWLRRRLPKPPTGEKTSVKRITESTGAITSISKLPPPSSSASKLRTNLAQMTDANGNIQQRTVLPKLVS
Sequence of LOK(h) (human) (O94804 1-348 limits assumed): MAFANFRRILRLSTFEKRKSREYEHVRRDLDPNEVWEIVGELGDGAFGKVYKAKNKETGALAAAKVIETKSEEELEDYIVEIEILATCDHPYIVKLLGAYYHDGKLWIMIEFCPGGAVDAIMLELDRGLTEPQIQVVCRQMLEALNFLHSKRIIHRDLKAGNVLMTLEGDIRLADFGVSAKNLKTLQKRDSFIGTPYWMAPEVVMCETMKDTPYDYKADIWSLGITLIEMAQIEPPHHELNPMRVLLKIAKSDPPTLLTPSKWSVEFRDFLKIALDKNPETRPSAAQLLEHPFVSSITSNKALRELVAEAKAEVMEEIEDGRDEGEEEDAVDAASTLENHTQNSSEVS
Sequence of Rsk3(h) (human) (Q15349 whole entry): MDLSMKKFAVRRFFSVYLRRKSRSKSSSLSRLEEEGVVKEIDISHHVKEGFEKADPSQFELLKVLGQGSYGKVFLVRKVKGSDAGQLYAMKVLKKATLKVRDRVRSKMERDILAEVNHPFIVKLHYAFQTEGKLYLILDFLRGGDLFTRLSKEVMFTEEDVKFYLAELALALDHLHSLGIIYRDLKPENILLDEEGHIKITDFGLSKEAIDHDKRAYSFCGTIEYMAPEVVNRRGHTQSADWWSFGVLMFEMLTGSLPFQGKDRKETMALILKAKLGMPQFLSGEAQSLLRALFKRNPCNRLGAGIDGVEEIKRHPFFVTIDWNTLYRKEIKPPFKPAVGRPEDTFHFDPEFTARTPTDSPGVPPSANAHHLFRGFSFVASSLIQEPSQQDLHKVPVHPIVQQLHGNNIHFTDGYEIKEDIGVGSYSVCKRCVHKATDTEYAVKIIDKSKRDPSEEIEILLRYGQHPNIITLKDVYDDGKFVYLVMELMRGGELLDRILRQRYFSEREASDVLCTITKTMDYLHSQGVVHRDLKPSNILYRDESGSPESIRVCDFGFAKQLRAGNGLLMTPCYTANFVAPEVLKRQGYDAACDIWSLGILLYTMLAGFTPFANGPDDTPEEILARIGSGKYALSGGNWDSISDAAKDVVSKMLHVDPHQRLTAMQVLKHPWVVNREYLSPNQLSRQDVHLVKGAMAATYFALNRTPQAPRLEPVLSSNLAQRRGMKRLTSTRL
Sequence of PKCη(h) (human) (P24723 whole entry): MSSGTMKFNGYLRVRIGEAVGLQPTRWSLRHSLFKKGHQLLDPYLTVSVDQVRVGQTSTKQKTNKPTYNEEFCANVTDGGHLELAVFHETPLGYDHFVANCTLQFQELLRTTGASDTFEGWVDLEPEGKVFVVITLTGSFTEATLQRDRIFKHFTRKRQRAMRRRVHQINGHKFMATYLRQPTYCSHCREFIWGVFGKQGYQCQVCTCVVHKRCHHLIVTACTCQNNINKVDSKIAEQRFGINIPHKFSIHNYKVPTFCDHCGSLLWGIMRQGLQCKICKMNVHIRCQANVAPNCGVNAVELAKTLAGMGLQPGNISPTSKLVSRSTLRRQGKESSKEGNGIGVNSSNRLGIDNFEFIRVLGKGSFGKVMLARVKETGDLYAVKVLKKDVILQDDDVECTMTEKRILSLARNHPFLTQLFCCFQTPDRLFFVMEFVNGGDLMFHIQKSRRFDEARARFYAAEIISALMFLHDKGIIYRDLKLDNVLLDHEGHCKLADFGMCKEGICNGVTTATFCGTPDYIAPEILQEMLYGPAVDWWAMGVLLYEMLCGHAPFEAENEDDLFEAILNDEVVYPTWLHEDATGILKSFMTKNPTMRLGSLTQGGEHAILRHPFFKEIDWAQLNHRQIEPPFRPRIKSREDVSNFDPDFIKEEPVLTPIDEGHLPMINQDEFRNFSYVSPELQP
Sequence of EphB2(h) (human) (P29323 565-986 limits assumed): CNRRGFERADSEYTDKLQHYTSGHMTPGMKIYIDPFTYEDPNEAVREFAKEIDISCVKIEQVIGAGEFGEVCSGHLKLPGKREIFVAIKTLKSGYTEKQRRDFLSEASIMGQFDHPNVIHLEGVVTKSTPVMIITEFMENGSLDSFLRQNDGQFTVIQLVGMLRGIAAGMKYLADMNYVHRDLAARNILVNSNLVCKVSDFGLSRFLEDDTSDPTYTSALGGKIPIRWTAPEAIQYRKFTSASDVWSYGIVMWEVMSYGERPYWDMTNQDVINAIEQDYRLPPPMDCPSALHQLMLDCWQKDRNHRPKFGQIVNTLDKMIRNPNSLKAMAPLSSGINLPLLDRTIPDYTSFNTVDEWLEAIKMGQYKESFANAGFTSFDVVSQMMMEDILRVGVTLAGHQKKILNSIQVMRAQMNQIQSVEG
Sequence of NEK3(h) (human) (P51956 whole entry): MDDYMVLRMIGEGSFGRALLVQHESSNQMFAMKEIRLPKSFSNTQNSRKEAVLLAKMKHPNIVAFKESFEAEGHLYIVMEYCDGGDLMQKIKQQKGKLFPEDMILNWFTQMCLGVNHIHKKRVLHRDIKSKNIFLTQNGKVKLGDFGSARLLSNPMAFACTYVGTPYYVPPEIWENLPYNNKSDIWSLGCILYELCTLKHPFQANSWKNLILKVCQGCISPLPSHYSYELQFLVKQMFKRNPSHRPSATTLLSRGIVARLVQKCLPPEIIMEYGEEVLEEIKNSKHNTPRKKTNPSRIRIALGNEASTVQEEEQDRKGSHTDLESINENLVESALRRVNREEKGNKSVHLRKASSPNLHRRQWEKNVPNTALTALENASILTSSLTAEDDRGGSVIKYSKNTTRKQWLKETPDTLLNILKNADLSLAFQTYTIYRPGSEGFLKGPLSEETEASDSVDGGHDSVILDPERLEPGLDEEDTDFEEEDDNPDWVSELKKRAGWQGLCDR
Sequence of ALK(h) (human) (Q9UM73 1058-1620 limits assumed): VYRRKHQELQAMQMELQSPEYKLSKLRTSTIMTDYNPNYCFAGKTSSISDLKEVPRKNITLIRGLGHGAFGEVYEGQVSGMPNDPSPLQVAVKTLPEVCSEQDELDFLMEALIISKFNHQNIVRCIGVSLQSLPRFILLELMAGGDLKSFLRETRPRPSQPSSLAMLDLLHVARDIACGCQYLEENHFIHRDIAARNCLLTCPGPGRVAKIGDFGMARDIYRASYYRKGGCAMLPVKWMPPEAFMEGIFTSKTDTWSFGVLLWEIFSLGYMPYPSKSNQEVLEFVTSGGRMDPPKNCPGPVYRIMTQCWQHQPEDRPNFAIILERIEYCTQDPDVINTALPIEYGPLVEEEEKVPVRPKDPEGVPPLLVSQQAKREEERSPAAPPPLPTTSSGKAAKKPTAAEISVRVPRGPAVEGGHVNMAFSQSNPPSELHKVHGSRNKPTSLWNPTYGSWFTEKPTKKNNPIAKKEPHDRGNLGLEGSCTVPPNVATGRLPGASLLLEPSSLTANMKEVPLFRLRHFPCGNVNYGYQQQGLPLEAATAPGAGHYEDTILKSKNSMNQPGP
Sequence of FGFR4(h) (human) (P22455 460-802 limits assumed): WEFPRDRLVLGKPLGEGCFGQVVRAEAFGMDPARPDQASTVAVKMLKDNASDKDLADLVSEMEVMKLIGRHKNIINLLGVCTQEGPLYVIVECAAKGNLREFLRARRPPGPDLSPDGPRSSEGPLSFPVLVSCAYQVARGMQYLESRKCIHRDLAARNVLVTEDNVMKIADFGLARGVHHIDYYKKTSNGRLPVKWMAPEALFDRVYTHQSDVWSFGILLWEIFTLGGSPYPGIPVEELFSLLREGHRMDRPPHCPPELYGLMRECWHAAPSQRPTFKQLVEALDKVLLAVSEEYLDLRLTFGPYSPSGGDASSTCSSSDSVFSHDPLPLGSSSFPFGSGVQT

Substance: MMI-0100 (peptide)
- % activity (PAK2(h) (human)): 71%
- % activity (Met(D1246N)(h) (human)): 114%
- % activity (SAPK2b(h) (human)): 99%
- % activity (Tie2(h) (human)): 28%
- % activity (Pyk2(h) (human)): 113%
- % activity (ROCK-I(h) (human)): 99%
- % activity (Mer(h) (human)): 47%
- % activity (NEK3(h) (human)): 100%
- % activity (PKCη(h) (human)): 105%
- % activity (Ab1(M351T)(h) (human)): 128%
- % activity (EphA3(h) (human)): 107%
- % activity (eEF-2K(h) (human)): 113%
- % activity (CDK2/cyclinA(h) (human)): 97%
- % activity (ALK(h) (human)): 118%
- % activity (SAPK2a(T106M)(h) (human)): 101%
- % activity (Rse(h) (human)): 109%
- % activity (Syk(h) (human)): 45%
- % activity (FGFR4(h) (human)): 67%
- % activity (Flt3(h) (human)): 104%
- % activity (Ab1(Q252H)(h) (human)): 105%
- % activity (PDGFRα(D842V)(h) (human)): 103%
- % activity (Ret(V804L)(h) (human)): 113%
- % activity (NLK(h) (human)): 100%
- % activity (Aurora-B(h) (human)): 94%
- % activity (KDR(h) (human)): 100%
- % activity (HIPK1(h) (human)): 94%
- % activity (IR(h) (human)): 112%
- % activity (ZIPK(h) (human)): 80%
- % activity (PDGFRα(h) (human)): 104%
- % activity (PDK1(h) (human)): 144%
- % activity (FGFR1(h) (human)): 120%
- % activity (TAO1(h) (human)): 99%
- % activity (cKit(D816H)(h) (human)): 79%
- % activity (Fyn(h) (human)): 71%
- % activity (PhKγ2(h) (human)): 62%
- % activity (DYRK2(h) (human)): 99%
- % activity (Pim-1(h) (human)): 44%
- % activity (LOK(h) (human)): 37%
- % activity (GSK3α(h) (human)): 183%
- % activity (MLK1(h) (human)): 77%
- % activity (Ab1(Y253F)(h) (human)): 104%
- % activity (CaMKI(h) (human)): 13%
- % activity (Met(Y1248D)(h) (human)): 87%
- % activity (PKG1α(h) (human)): 82%
- % activity (JNK2α2(h) (human)): 114%
- % activity (Rsk4(h) (human)): 99%
- % activity (TLK2(h) (human)): 113%
- % activity (EGFR(L861Q)(h) (human)): 53%
- % activity (PKCε(h) (human)): 102%
- % activity (RIPK2(h) (human)): 92%
- % activity (EphB2(h) (human)): 68%
- % activity [1]: 126%
- % activity (Lyn(h) (human)): 113%
- % activity (CHK2(h) (human)): 104%
- % activity (Rsk3(h) (human)): 76%
- % activity (DAPK2(h) (human)): 41%

Substance: MMI-0500 (peptide)
- % activity (PAK2(h) (human)): 44%
- % activity (Met(D1246N)(h) (human)): 90%
- % activity (SAPK2b(h) (human)): 42%
- % activity (Tie2(h) (human)): 22%
- % activity (Pyk2(h) (human)): 46%
- % activity (ROCK-I(h) (human)): 17%
- % activity (Mer(h) (human)): 17%
- % activity (NEK3(h) (human)): 20%
- % activity (PKCη(h) (human)): 45%
- % activity (Ab1(M351T)(h) (human)): 61%
- % activity (EphA3(h) (human)): 33%
- % activity (eEF-2K(h) (human)): 43%
- % activity (CDK2/cyclinA(h) (human)): 87%
- % activity (ALK(h) (human)): 12%
- % activity (SAPK2a(T106M)(h) (human)): 32%
- % activity (Rse(h) (human)): 63%
- % activity (Syk(h) (human)): 5%
- % activity (FGFR4(h) (human)): 3%
- % activity (Flt3(h) (human)): 17%
- % activity (Ab1(Q252H)(h) (human)): 40%
- % activity (PDGFRα(D842V)(h) (human)): 170%
- % activity (Ret(V804L)(h) (human)): 20%
- % activity (NLK(h) (human)): 19%
- % activity (Aurora-B(h) (human)): 5%
- % activity (KDR(h) (human)): 15%
- % activity (HIPK1(h) (human)): 47%
- % activity (IR(h) (human)): 95%
- % activity (ZIPK(h) (human)): 1%
- % activity (PDGFRα(h) (human)): 40%
- % activity (PDK1(h) (human)): 178%
- % activity (FGFR1(h) (human)): 18%
- % activity (TAO1(h) (human)): 24%
- % activity (cKit(D816H)(h) (human)): 194%
- % activity (Fyn(h) (human)): 83%
- % activity (PhKγ2(h) (human)): 16%
- % activity (DYRK2(h) (human)): 127%
- % activity (Pim-1(h) (human)): 0%
- % activity (LOK(h) (human)): 7%
- % activity (GSK3α(h) (human)): 175%
- % activity (MLK1(h) (human)): 43%
- % activity (Ab1(Y253F)(h) (human)): 29%
- % activity (CaMKI(h) (human)): -1%
- % activity (Met(Y1248D)(h) (human)): 218%
- % activity (PKG1α(h) (human)): 25%
- % activity (JNK2α2(h) (human)): 81%
- % activity (Rsk4(h) (human)): 29%
- % activity (TLK2(h) (human)): 133%
- % activity (EGFR(L861Q)(h) (human)): 15%
- % activity (PKCε(h) (human)): 23%
- % activity (RIPK2(h) (human)): 30%
- % activity (EphB2(h) (human)): 70%
- % activity [1]: 45%
- % activity (Lyn(h) (human)): 31%
- % activity (CHK2(h) (human)): 13%
- % activity (Rsk3(h) (human)): 23%
- % activity (DAPK2(h) (human)): 3%

Substance: MMI-0200 (peptide)
- % activity (PAK2(h) (human)): 69%
- % activity (Met(D1246N)(h) (human)): 149%
- % activity (SAPK2b(h) (human)): 95%
- % activity (Tie2(h) (human)): 53%
- % activity (Pyk2(h) (human)): 127%
- % activity (ROCK-I(h) (human)): 117%
- % activity (Mer(h) (human)): 90%
- % activity (NEK3(h) (human)): 100%
- % activity (PKCη(h) (human)): 101%
- % activity (Ab1(M351T)(h) (human)): 119%
- % activity (EphA3(h) (human)): 117%
- % activity (eEF-2K(h) (human)): 136%
- % activity (CDK2/cyclinA(h) (human)): 114%
- % activity (ALK(h) (human)): 95%
- % activity (SAPK2a(T106M)(h) (human)): 100%
- % activity (Rse(h) (human)): 88%
- % activity (Syk(h) (human)): 36%
- % activity (FGFR4(h) (human)): 75%
- % activity (Flt3(h) (human)): 99%
- % activity (Ab1(Q252H)(h) (human)): 107%
- % activity (PDGFRα(D842V)(h) (human)): 107%
- % activity (Ret(V804L)(h) (human)): 100%
- % activity (NLK(h) (human)): 106%
- % activity (Aurora-B(h) (human)): 166%
- % activity (KDR(h) (human)): 110%
- % activity (HIPK1(h) (human)): 115%
- % activity (IR(h) (human)): 90%
- % activity (ZIPK(h) (human)): 67%
- % activity (PDGFRα(h) (human)): 108%
- % activity (PDK1(h) (human)): 143%
- % activity (FGFR1(h) (human)): 97%
- % activity (TAO1(h) (human)): 105%
- % activity (cKit(D816H)(h) (human)): 106%
- % activity (Fyn(h) (human)): 75%
- % activity (PhKγ2(h) (human)): 86%
- % activity (DYRK2(h) (human)): 142%
- % activity (Pim-1(h) (human)): 18%
- % activity (LOK(h) (human)): 67%
- % activity (GSK3α(h) (human)): 119%
- % activity (MLK1(h) (human)): 84%
- % activity (Ab1(Y253F)(h) (human)): 102%
- % activity (CaMKI(h) (human)): 21%
- % activity (Met(Y1248D)(h) (human)): 118%
- % activity (PKG1α(h) (human)): 70%
- % activity (JNK2α2(h) (human)): 109%
- % activity (Rsk4(h) (human)): 125%
- % activity (TLK2(h) (human)): 129%
- % activity (EGFR(L861Q)(h) (human)): 74%
- % activity (PKCε(h) (human)): 98%
- % activity (RIPK2(h) (human)): 98%
- % activity (EphB2(h) (human)): 128%
- % activity [1]: 94%
- % activity (Lyn(h) (human)): 98%
- % activity (CHK2(h) (human)): 105%
- % activity (Rsk3(h) (human)): 109%
- % activity (DAPK2(h) (human)): 92%

Reference: patent US20160200782A1
